Test results reported in publication PMC7556464, “4CMenB vaccine induces elite cross-protective human antibodies that compete with human factor H for binding to meningococcal fHbp” (PLoS Pathogens, 2020).

T1: factor H binding protein (fHbp) variant 1.1 (Neisseria meningitidis MC58, fHbp v1.1, strain)
T1 construct: also called fHbp v1.1; fHbp v1; source: E. coli BL21(DE3), purified (Ni-NTA; SEC when necessary)
T1 chain: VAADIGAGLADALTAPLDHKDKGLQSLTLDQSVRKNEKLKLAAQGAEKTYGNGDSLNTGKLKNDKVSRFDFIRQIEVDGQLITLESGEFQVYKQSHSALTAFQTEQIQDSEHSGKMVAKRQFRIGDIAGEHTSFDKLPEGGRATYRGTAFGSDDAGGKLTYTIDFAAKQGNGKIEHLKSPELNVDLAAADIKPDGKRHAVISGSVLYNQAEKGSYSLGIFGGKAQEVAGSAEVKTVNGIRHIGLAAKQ

T2: factor H binding protein (fHbp) variant 1.1, recombinant (Neisseria meningitidis MC58, fHbp v1.1)
T2 construct: also called fHbp v1.1; fHbp v1; source: E. coli BL21(DE3), purified (Ni-NTA, SEC when necessary); not shown: His6, C-terminal, kept
T2 chain: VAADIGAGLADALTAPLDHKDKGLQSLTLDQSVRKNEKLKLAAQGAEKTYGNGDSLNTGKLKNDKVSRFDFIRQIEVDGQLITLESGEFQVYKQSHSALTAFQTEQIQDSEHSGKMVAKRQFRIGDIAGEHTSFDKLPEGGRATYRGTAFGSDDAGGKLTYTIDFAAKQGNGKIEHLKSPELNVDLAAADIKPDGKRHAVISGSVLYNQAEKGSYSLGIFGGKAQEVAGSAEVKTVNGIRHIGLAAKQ

B1: human anti-fHbp mAb 5C6 (antibody, V domains shown)
VH: EVQLLESGGGLVQPGGSLRLSCAASGFTFSSYAMSWVRQTPGKGLEWVSAISGSGGSTYYADSVQGRFTISRDNSKNTLYLQINSLRAEDTAVYYCAKDPGFVLSSGWYYFDYWGQGTLVTVSS
VL: not shown
notes: source: Expi293, transient transfection, purified (protein G Sepharose)
B2: human anti-fHbp mAb 3B7 (antibody, V domains shown)
VH: EVQLVQSGAEVKKPGSSVKVSCKASGDTFSNYPISWVRQAPGQGLEWMGGIIPIFGTANYAQKFQGRVTITADESTSTPYMELSSLRSEDTAVYYCARGDTAMAPFDYWGQGTLVTVSS
VL: SYVLTQPPSVSVAPGKTARITCGGNSIGSKSVHWYQQKPGQAPVLVIYYDSDRPSGVPERISGSNSGNTATLTISRVEAGDEADYYCQVWDSSSDSWVFGGGTKLTVL
notes: as for B1
B3: human anti-fHbp mAb 3B7 (antibody, V domains shown)
VH: EVQLVQSGAEVKKPGSSVKVSCKASGDTFSNYPISWVRQAPGQGLEWMGGIIPIFGTANYAQKFQGRVTITADESTSTPYMELSSLRSEDTAVYYCARGDTAMAPFDYWGQGTLVTVSS
VL: SYVLTQPPSVSVAPGKTARITCGGNSIGSKSVHWYQQKPGQAPVLVIYYDSDRPSGVPERISGSNSGNTATLTISRVEAGDEADYYCQVWDSSSDSWVFGGGTKLTVL
notes: as for B1
B4: human anti-fHbp mAb 1D1 (antibody, V domains shown)
VH: QVQLVGSGGGLVKPGGSLRLSCAASGFTFSSYTMNWVRQAPGKGLEWVSSISSSSGYIYYADSLKGRFTISRDDAKNSLFLQMNSLRAEDTAVYFCARDKVLPAPPGFYGLDVWGPGTTVTVSS
VL: QSVVTQPPSVSAAPGQKVTISCSGSSSNIEDNFVSWYQQLPGTAPKLLIYDNNQRPSGIPDRFSGSKSGTSATLGITGLQTGDEADYYCATWDNSLSARVFGGGTKLTVL
notes: as for B1
B5: human anti-fHbp mAb 3F1 (antibody, V domains shown)
VH: EVHLVESGGGLVKPGGSLRLSCAASGFTFSSYTMNWVRQAPGKGLEWVSSISSSSGYIYYADSLKGRFTISRDNAKNSLFLQMNSLRAEDTAVYFCARDKVLPAPPGFYGLDVWGPGTTVTVSS
VL: QSVVTQPPSVSAAPGQKVTISCSGSSSNIEDNFVSWYQQLPGTAPKLLIYDNNQRPSGIPDRFSGSKSGTSATLGITGLQTGDEADYYCATWDNSLSARVFGGGTKLTVL
notes: as for B1
B6: human anti-fHbp mAb 4F9 (antibody, V domains shown)
VH: QVQLVQSGGGLVKPGGSLRLSCAASGFPFSSYYMSWIRQAPGKGLEWVSDINNSGNVKEYADFVKGRLTISRDNVKNSMYLHMNSLRVEDTAVYYCARNRGRFDVWGQGTLVTVSA
VL: EIVMTQSPGTLSLSPGETATLSCRASQMISSPFLAWYQQRRGQAPRLLIYGASTRATDTPDRFRGSGSGTDFILTISRLEPEDFAVYYCQHYDDSPFTFGQGTKLEIK
notes: as for B1
B7: human anti-fHbp mAb 4B3 (antibody, V domains shown)
VH: QVQLVQSGGGLVKPGGSLRLSCAASGFPFSSYYMSWIRQAPGKGLEWVSDINNSGNVKEYADFVKGRLTISRDNVKNSMYLHMNSLRVEDTAVYYCARNRGRFDVWGQGTLVTVSA
VL: EIVMTQSPGTLSLSPGETATLSCRASQMISSPFLAWYQQRRGQAPRLLIYGASTRATDTPDRFRGSGSGTDFILTISRLEPEDFAVYYCQYYDDSPFTFGQGTKLEIK
notes: as for B1
B8: human anti-fHbp mAb 3G7 (antibody, V domains shown)
VH: EVQLLQSGGGLVKPGGSLRLSCAASGFPFSSYYMSWIRQAPGKGLEWVSDINNSGNVKEYADFVKGRLTISRDNVKNSMYLHMNSLRVEDTAVYYCARNRGRFDVWGQGTLVTVSA
VL: EIVLTQSPGTLSLSPGETATLSCRASQMISSPFLAWYQQRRGQAPRLLIYGASTRATDTPDRFRGSGSGTDFILTISRLEPEDFAVYYCQYYDDSPFTFGQGTKLEIK
notes: as for B1
B9: human anti-fHbp mAb 2C8 (antibody, V domains shown)
VH: QVQLVQSGAEVKKPGSSVKVSCKASGGTVINYPISWVRQVPGQGLEWMGRLVPLFGTPNYGQKFQGRITITADKSTSAAYMELIGLKSEDTAVYYCARGDTAMAPFDYWGHGTLVTVSS
VL: QLVLTQPPSVSVAPGKTATITCGGNNVGGKTVHWYQQKPGQAPVLVMSYDSDRPSGIPERFSGSNSGNTATLTISRVEAEDEADYYCQVWHGNDDHWVFGGGTKLTVL
notes: as for B1
B10: human anti-fHbp mAb 1E10 (antibody, V domains shown)
VH: QVQLVESGGDLVKPGGSLRLSCVASGFTFSSYTMNWVRQAPGKGLEWVSSITSSSSFTYYADSVKGRFIISRDNAKNSLSLQMNNLRVEDTATYYCARRKDSSDYDWYYYYGMDVWGLGTTVTVSS
VL: QSVVTQPPSVSAAPGQKVTISCSGSSSNIGDNYMSWYQQIPGTAPKLLIFDNDQRPSGIPDRFSASKSGTSATLDITGFQTGDEADYYCGTWDSGLSAPVFGGGTKLTVL
notes: IgG1; source: Expi293, transient transfection, purified (protein G Sepharose)
B11: human anti-fHbp mAb 2G1 (antibody, V domains shown)
VH: QVQLVESGGDLVKPGGSLRLSCVASGFTFSSYTMNWVRQAPGKGLEWVSSITSSSSFTYYADSVKGRFIISRDNAKNSLSLQMNNLRVEDTATYYCARRKDSSDYDWYYYYGMDVWGLGTTVTVSS
VL: QSVLTQPPSVSAAPGQKVTISCSGSSSNIGDNYMSWYQQIPGTAPKLLIFDNDQRPSGIPDRFSASKSGTSATLDITGFQTGDEADYYCGTWDSGLSAPVFGGGTKLTVL
notes: as for B1
B12: human anti-fHbp mAb 1E10 (antibody, V domains shown)
VH: QVQLVESGGDLVKPGGSLRLSCVASGFTFSSYTMNWVRQAPGKGLEWVSSITSSSSFTYYADSVKGRFIISRDNAKNSLSLQMNNLRVEDTATYYCARRKDSSDYDWYYYYGMDVWGLGTTVTVSS
VL: QSVVTQPPSVSAAPGQKVTISCSGSSSNIGDNYMSWYQQIPGTAPKLLIFDNDQRPSGIPDRFSASKSGTSATLDITGFQTGDEADYYCGTWDSGLSAPVFGGGTKLTVL
notes: as for B1
B13: human anti-fHbp mAb 4B10 (antibody, V domains shown)
VH: EVQLVESGGGLVKPGGSLRLSCAASGFAFSTYSLHWVRQAPGKGLEWVSAITSSGSFLYYADSLKGRFTVSRDNAKNSLFLQMNSLRAGDTAVYYCARALQVEDGFPMFSGLDVWGQGTTVTVSS
VL: QTVVTQPPSVSEAPRQRVAISCSGSSSNIGDNSVSWYQQLPGKAPKLLIYDDDLLPSGVSDRFSASKSGTSASLAISGLQSEDEAEYYCAAWDDSLKGVVFGGGTKLTVL
notes: as for B10
B14: human anti-fHbp mAb 4B10 (antibody, V domains shown)
VH: EVQLVESGGGLVKPGGSLRLSCAASGFAFSTYSLHWVRQAPGKGLEWVSAITSSGSFLYYADSLKGRFTVSRDNAKNSLFLQMNSLRAGDTAVYYCARALQVEDGFPMFSGLDVWGQGTTVTVSS
VL: QTVVTQPPSVSEAPRQRVAISCSGSSSNIGDNSVSWYQQLPGKAPKLLIYDDDLLPSGVSDRFSASKSGTSASLAISGLQSEDEAEYYCAAWDDSLKGVVFGGGTKLTVL
notes: as for B1
B15: human anti-fHbp mAb 5F12 (antibody, V domains shown)
VH: EVQLVESGGDLVKPGGSLRLSCAASGFTFSNYTMNWVRQAPGKGLEWVSSITSSSSFKYYADSVKGRFTISRDNAKNSVFLQMNSLRAEDTAIYYCARRIDSSDQDWFYYYGMDVWGLGTTVTVSS
VL: QSVLTQPPSVSAAPGQRVTISCSGSSSNIGDNYISWYQQLPGTAPKLLIYDNDQRPSGTPDRFSASKSGTSATLGVTGLQTGDEADYYCGTWDSSLNAPVFGSGTKVTVL
notes: as for B1

Experiments:
Test in all cases: SPR
Details in all cases: both partners purified
[1] = biological target: T1, factor H binding protein (fHbp) variant …
[2] = biological target: T3, factor H binding protein (fHbp) variant 2.16 (Neisseria meningitidis 961-5945, UniProt Q6VS19, strain)
T3 construct: also called fHbp v2.16; fHbp v2; source: E. coli BL21(DE3), purified (Ni-NTA; SEC when necessary)

[3] = biological target: T4, factor H binding protein (fHbp) variant 3.28 (Neisseria meningitidis M1239, fHbp v3.28, UniProt Q19KF7, strain)
T4 construct: also called fHbp v3.28; fHbp v3; source: E. coli BL21(DE3), purified (Ni-NTA; SEC when necessary)

[4] = biological target: T2, factor H binding protein (fHbp) variant …
[5] = biological target: T5, factor H binding protein (fHbp) variant 2.16, recombinant (Neisseria meningitidis 961-5945, UniProt Q6VS19, strain)
T5 construct: also called fHbp v2.16; fHbp v2; source: E. coli BL21(DE3), purified (Ni-NTA, SEC when necessary)

[6] = biological target: T6, factor H binding protein (fHbp) variant 3.28, recombinant (Neisseria meningitidis M1239, fHbp v3.28, UniProt Q19KF7, strain)
T6 construct: also called fHbp v3.28; fHbp v3; source: E. coli BL21(DE3), purified (Ni-NTA, SEC when necessary)

Row | Binder | koff [1] [s⁻¹] | kon [1] [M⁻¹ s⁻¹] | koff [2] [s⁻¹] | kon [2] [M⁻¹ s⁻¹] | koff [3] [s⁻¹] | kon [3] [M⁻¹ s⁻¹] | Kd [4] [nM] | Kd [5] [nM] | Kd [6] [nM] | Kd [2] [nM]
1 | B1 | 0.000454 | 420000 | 0.000345 | 204000 | 0.00071 | 350000 |  |  |  | 
2 | B2 |  |  |  |  |  |  | 2.6 | 0.551 | 2.2 | 
3 | B3 | 0.00442 | 1.71e+06 | 7.13e-06 | 1.32e+06 | 0.00083 | 382000 |  |  |  | 
4 | B4 | 0.00154 | 1.81e+06 | 0.00264 | 450000 | 0.000642 | 371000 |  |  |  | 
5 | B5 | 0.000917 | 885000 | 0.00478 | 382000 | 0.00063 | 340000 |  |  |  | 
6 | B6 | 0.00251 | 3.29e+07 | 3.3e-05 | 1.16e+06 | 0.00095 | 380000 |  |  |  | 
7 | B7 | 0.000217 | 661000 | 7.98e-05 | 2.73e+06 | 0.0002 | 315000 |  |  |  | 
8 | B8 | 0.000311 | 903000 | 3.89e-05 | 741000 | 0.000176 | 258000 ± 0.01 |  |  |  | 
9 | B9 | 0.000388 | 1.16e+06 | 0.000689 | 1.31e+07 | 0.0002 | 430000 |  |  |  | 
10 | B10 |  |  |  |  |  |  | 1.54 | 1.4 | 1.27 | 
11 | B11 |  |  | 0.00045 | 270000 | 0.000584 | 332000 |  |  |  | 
12 | B12 | 0.000657 | 427000 | 0.00079 | 630000 | 0.000495 | 390000 |  |  |  | 
13 | B13 |  |  |  |  |  |  | 0.296 |  | 1.67 | 
14 | B14 | 0.0025 | 7.7e+06 | 0.000706 | 1.57e+07 | 0.000473 | 284000 |  |  |  | 0.0451
15 | B15 | 0.000846 | 854000 | 0.00188 | 690000 | 0.00613 | 350000 |  |  |  | 
